Assay results published in patent US20250121064A1 (CARSGEN LIFE SCIENCES, published 2025).

Target: T1, human GPRC5D on cells (human, UniProt Q9NZD1 1-345)
T1 construct: MM.1S and NCI-H929 cells express it endogenously; also called huGPRC5D; CHOK1-huGPRC5D
Assay: flow cytometry on CHOK1-huGPRC5D cells

T1 sequence (Q9NZD1 whole entry): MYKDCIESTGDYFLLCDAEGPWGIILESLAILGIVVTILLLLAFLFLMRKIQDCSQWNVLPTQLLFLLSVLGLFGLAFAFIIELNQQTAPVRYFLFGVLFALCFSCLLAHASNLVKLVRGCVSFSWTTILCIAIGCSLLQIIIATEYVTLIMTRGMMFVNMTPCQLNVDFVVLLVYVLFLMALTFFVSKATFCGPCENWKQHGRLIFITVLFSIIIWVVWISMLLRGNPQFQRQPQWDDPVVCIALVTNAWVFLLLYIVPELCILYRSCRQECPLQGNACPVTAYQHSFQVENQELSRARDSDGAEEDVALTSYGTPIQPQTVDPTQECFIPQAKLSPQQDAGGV

| EC50 | Binder |
| --- | --- |
| 1.69 nM | hybridoma antibody AB1 (IgG2b-k) (antibody, V domains shown, Mouse hybridoma mIgG, IgG2b kappa) VH: EVQLQQSGPEVVKPGASMKISCKASGYSFTGYTMNWVKQSHGKNFEWIGLINPYNGGTSYNQKFKGKATLTVDKSSSTAYMELLSLTSEDSAVYYCTRGGFRAWFAFWGQGTLVTVSA VL: DIQMTQSPSSLSASLGERVSLTCRASQDIGSNLNWLQQEPDGTIKRLIYATSILDSGVPKRFSGSRSGSDYSLTISSLESEDFVDYYCLQYATFPNTFGGGTKLEIKR |
| 1.93 nM | hybridoma antibody AB2 (IgG3-k) (antibody, V domains shown, Mouse hybridoma mIgG, IgG3 kappa) VH: VVKLVESGGGLVQPGGSLKLSCAASGFTFSNYGMSWVRQTPDTRLELVATINSNGGNTYYPDSVKGRFTISRDNAKNTLYLQMSSLKSEDTAIYYCVRAYSLTMDYWGQGTSVTVSS VL: DVVMTQTPLSLPVSLGDQASISCRSSQSLVHSNGNTYLHWYLQKPGQSPKLLIYKVSNRFSGVPDRFSGSGSGTDFTLKIIRVEAEDLGVYFCSQSTHVPPTFRAGTKLELKR |
